Holding throughout (conditions): glycan lost; control: wild-type VMO1-myc-his6
The nature of data set [1]: anti-myc western blot of conditioned media. For orientation: A western blot detects proteins with antibodies after separation by electrophoresis.
Data set [2] in a line: anti-myc western blot of total cell lysates.
Data set [3] is described as follows: cycloheximide chase, western blot of lysates.

B1: vitelline membrane outer layer protein 1 homolog (VMO1): W105F (protein)
parent chain: MERGAGAKLLPLLLLLRATGFTCAQTDGRNGYTAVIEVTSGGPWGDWAWPEMCPDGFFASGFSLKVEPPQGIPGDDTALNGIRLHCARGNVLGNTHVVESQSGSWGEWSEPLWCRGGAYLVAFSLRVEAPTTLGDNTAANNVRFRCSDGEELQGPGLSWGDFGDWSDHCPKGACGLQTKIQGPRGLGDDTALNDARLFCCRS
For B1, the figures for the expression_or_secretion result in data set [1] and in data set [2] were “no change” and “increases”, respectively. The degradation_or_half_life result in data set [3] is on record as “increases”.

Values taken from publication PMC9989928.
